Substitutions are numbered along the chain they refer to. Numbers in names are those of the source. One block for each binder: values may come before it.
Tests used:
[1] = molecular target: T1, biotinylated human IL-2 with C-terminal biotin acceptor peptide (human, UniProt P60568 21-153, biotinylated with BirA ligase on the C-terminal biotin acceptor peptide); assay: flow cytometry on yeast displaying the scFv, 5 nM soluble biotinylated IL-2 co-incubated with soluble IL-2Rα
T1 construct: Immobilized on streptavidin tips in BLI and used as the soluble labelled ligand in the yeast display assays; also called biotinylated hIL-2; immobilized hIL-2
Protocol: (§1) Cells were then washed and stained with a 1:200 dilution of AlexaFluor 647-complexed streptavidin (Thermo Fisher Scientific) in PBSA for 15 minutes at 4° C. After a final wash, cells were analyzed for target binding using a CytoFLEX flow cytometer (Beckman Coulter). Background-subtracted and normalized binding curves were fitted to a first-order binding model and equilibrium dissociation constant (KD) values were determined using GraphPad Prism software.

[2] = molecular target: T1, biotinylated human IL-2 with C-terminal …; assay: flow cytometry, titration of soluble biotinylated IL-2 on yeast displaying the scFv, streptavidin-AF647 detection
Protocol: as §1

[3] = molecular target: T1, biotinylated human IL-2 with C-terminal …; assay: flow cytometry competition: soluble IL-2Rα titrated against 10 nM biotinylated IL-2; competitor is the yeast-displayed 602 scFv
[4] = molecular target: T1, biotinylated human IL-2 with C-terminal …; assay: flow cytometry competition: soluble IL-2Rα titrated against 5 nM biotinylated IL-2; competitor is the yeast-displayed F10 scFv
[5] = molecular target: T1, biotinylated human IL-2 with C-terminal …; assay: bio-layer interferometry (Octet), equilibrium titration on immobilized hIL-2

B1: yeast-displayed F10 single-chain variable fragment (variant of the 602 scFv) (scFv)
scFv: EVQLQESGPGLVAPSQSLSITCTVSGFSLTNYDISWIRQPPGKGLEWLGVIWTGGGTNYNSGFMSRLSITKDNSKSQVFLKMNSLQTDDTAIYYCVRQGRSPYWGQGTLVTVSAGGGGSGGGGSGGGGSDIQVTQSPSSLSVSLGDRVTITCKASKDIYNRLAWYQQKPGNAPRLLISGATSLETGVPSRFSGSGSGKDYTLTITSLQTEDVATYYCQQSWDTPYTFGGGTKLEIK
notes: also called F10 scFv; evolved F10 scFv; not shown: N-terminal Aga2, (G4S)3 linker, 3C and factor Xa cleavage sites; C-terminal c-Myc tag
binding result [1]: binds

B3: human IL-2Rα extracellular domain, soluble, with C-terminal hexahistidine tag (receptor)
chain: ELCDDDPPEIPHATFKAMAYKEGTMLNCECKRGFRRIKSGSLYMLCTGNSSHSSWDNQCQCTSSATRNTTKQVTPQPEEQKERKTTEMQSPMQPVDQASLPGHCREPPPWENEATERIYHFVVGQMVYYQCVQGYRALHRGPAESVCKMTHGKTRWTQPQLICTGEMETSQFPGEEKPQASPEGRPESETSCLVTTTDFQIQTEMAATMETSIFTTEYQHHHHHH
notes: extracellular domain; also called soluble IL-2Rα
IC50 (read off the curve) [3]: ~60 nM
IC50 (read off the curve) [4]: ~300 nM

The remaining lines, values ahead:

EC50 (read off the curve) [2]: ~10 nM
B2: yeast-displayed 602 single-chain variable fragment (VH-(G4S)3-VL, fused to Aga2) (scFv)
scFv: B1 scFv with S101T, S220F, D222G
notes: not shown: N-terminal Aga2, (G4S)3 linker, 3C and factor Xa cleavage sites; C-terminal c-Myc tag

Kd [5]: 3.5 nM
B4: recombinant 602 antibody (anti-human IL-2), mouse IgG2a kappa (antibody, V domains shown)
VH: EVQLQESGPGLVAPSQSLSITCTVSGFSLTNYDISWIRQPPGKGLEWLGVIWTGGGTNYNSGFMSRLSITKDNSKSQVFLKMNSLQTDDTAIYYCVRQGRTPYWGQGTLVTVSA
VL: DIQVTQSPSSLSVSLGDRVTITCKASKDIYNRLAWYQQKPGNAPRLLISGATSLETGVPSRFSGSGSGKDYTLTITSLQTEDVATYYCQQFWGTPYTFGGGTKLEIKR
notes: They are built here from the component entries so that the signal peptides are left out; also called MAB602

From patent US20220372098A1 (Johns Hopkins, published 2022)
